Source: publication PMC12245071

Legend:
[1] = biological target: Soc-SpyCatcher displayed on the T4 phage capsid (T4-SpyCatcher phage) (bacteriophage T4); assay: co-sedimentation; sequential co-display on T4-SpyCatcher phage: HA-stem trimers added first, incubated, then S-ecto trimers at 1:1; 4 °C, PBS pH 7.4; SDS-PAGE quantification
[2] = biological target: Soc-SpyCatcher displayed on the T4 phage capsid (T4-SpyCatcher phage) (bacteriophage T4); assay: co-sedimentation; T4-SpyCatcher phage incubated with SpyTagged S-ecto or HA-stem trimers alone at increasing ratios of trimer to Soc binding sites, 4 °C, 1-2 h, PBS pH 7.4; sedimented at 34 000 g, pellets washed twice, SDS-PAGE and band quantification; covalent SpyCatcher-SpyTag conjugation
[3] = biological target: Soc-SpyCatcher displayed on the T4 phage capsid (T4-SpyCatcher phage) (bacteriophage T4); assay: co-sedimentation; sequential co-display on T4-SpyCatcher phage: S-ecto trimers added first at a 0.25:1 ratio, incubated, then HA-stem trimers added at a 1:1 ratio; 4 °C, PBS pH 7.4; SDS-PAGE quantification

For “Prefusion-stabilized SARS-CoV-2 spike ectodomain trimer with C-terminal SpyTag (from UniProt P0DTC2 14-1208) (domain or fragment)”, the copies per capsid (copies per capsid) [1] was 35, the copies per capsid (copies per capsid) [2] was 118 and the copies per capsid (copies per capsid) [3] was 56.
